In publication PMC6058786:

Molecular target: Pin1 WW-domain (UniProt Q13526)
Assay: isothermal titration calorimetry
Settings: reference: unphosphorylated TFCD peptide; sites S258,S253

KD: stronger; reference 1.53 mM
Substance: Tissue Factor (TF) cytoplasmic domain (TFCD) (from UniProt P13726) double phosphorylated TFCD peptide
